This note sets out measurements from paper PMC4633989.

As a reminder, the Kd is the equilibrium constant for the complex coming apart. A high value points to a looser complex.

The target in this experiment is Nrx-1 C-term peptide (last 10 C-terminal residues of Drosophila Nrx-1) (Drosophila) (UniProt Q3KN41). The experiment is described as follows: ITC; Nrx-1 C-term peptide with the PDZ domains of Spn or Syd-1; details in the Supplementary Methods. On the technique in general: Isothermal titration calorimetry measures the heat released or taken up as one component is titrated into another.
UniProt Q3KN41, sequence (Q3KN41 whole entry, looked up, the tested form may be a part): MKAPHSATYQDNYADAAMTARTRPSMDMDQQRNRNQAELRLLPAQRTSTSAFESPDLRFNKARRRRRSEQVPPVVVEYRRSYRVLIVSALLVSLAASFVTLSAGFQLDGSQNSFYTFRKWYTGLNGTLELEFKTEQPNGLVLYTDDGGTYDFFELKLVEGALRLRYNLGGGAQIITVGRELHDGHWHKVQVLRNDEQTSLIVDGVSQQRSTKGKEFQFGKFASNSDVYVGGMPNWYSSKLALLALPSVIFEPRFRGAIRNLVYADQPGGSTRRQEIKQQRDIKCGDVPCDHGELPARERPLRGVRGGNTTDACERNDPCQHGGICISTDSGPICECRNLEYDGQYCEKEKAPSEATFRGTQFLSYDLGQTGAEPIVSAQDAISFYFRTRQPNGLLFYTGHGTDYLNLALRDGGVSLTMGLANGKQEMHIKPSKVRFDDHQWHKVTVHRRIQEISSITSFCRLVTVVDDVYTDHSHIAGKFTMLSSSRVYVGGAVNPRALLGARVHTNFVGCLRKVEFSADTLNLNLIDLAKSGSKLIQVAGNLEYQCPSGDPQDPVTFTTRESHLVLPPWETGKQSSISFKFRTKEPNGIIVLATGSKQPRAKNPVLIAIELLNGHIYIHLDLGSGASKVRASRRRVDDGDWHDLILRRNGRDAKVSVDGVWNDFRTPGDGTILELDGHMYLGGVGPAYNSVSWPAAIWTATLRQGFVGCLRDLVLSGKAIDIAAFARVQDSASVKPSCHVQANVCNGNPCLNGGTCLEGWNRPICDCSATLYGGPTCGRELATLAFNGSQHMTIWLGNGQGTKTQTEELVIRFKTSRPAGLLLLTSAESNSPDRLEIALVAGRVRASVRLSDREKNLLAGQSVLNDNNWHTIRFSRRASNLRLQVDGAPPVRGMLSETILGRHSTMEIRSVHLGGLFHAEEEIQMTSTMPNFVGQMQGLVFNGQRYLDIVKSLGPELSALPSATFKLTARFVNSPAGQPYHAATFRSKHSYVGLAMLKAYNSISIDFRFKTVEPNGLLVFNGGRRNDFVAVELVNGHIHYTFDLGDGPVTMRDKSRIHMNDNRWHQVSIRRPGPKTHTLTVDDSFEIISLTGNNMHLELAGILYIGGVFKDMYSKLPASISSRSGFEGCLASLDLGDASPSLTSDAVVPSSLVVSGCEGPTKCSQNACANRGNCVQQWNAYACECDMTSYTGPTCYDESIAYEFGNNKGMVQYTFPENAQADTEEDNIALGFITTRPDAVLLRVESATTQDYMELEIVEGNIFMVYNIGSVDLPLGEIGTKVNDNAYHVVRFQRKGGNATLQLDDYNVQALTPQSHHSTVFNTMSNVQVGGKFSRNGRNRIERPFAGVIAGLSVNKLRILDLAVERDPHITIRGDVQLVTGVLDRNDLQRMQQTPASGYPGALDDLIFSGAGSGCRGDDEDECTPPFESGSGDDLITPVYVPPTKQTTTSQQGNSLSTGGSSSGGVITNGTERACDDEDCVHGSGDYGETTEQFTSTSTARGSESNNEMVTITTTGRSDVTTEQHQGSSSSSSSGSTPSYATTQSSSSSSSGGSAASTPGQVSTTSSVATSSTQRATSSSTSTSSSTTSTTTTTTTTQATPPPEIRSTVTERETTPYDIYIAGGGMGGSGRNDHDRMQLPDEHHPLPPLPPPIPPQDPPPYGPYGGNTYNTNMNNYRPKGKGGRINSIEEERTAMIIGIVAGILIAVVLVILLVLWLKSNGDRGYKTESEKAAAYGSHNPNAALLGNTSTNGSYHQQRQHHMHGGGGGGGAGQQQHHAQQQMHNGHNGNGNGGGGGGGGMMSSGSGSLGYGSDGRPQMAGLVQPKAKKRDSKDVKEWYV

With “Drosophila Spn-PDZ domain (dmSpn residues 1,258-1,347) (domain or fragment)”, the Kd was found to be 50 µM. With “Drosophila Syd-1-PDZ domain (dmSyd-1 residues 155-242) (domain or fragment)”, the Kd is 5 µM.
